Our source for the Kd and binding signal values is article PMC7069974, “Single molecule analysis reveals monomeric XPA bends DNA and undergoes episodic linear diffusion during damage search”.

Residue numbers refer to the chain shown, from its start.

Common to all, as to test: EMSA; EMSA: 8 nM DNA, 20 mM HEPES pH 7.5, 150 mM NaCl, 5 mM DTT, 0.5 mg/ml BSA, 5% glycerol, 25 min at room temperature; gel 5% native, 0.5x TBE, 4 C. AFM: 100 nM DNA, 1-4 uM XPA (ND538)
Holding throughout (conditions): protein: recombinant, tags: N-terminal His, label: 5'-6FAM on bottom strand, blunt
A general note: Mobility shift assays separate free from complexed probe on a gel.

Series [1] concerns the target T1, His-flXPA-StrepII (human, UniProt P23025 1-273).
Series [2] has as its target His-truncXPA-StrepII (human, UniProt P23025 98-239).
Series [3] addresses T1, His-flXPA-StrepII. This is another data set of the same source.

T1 sequence (P23025 whole entry): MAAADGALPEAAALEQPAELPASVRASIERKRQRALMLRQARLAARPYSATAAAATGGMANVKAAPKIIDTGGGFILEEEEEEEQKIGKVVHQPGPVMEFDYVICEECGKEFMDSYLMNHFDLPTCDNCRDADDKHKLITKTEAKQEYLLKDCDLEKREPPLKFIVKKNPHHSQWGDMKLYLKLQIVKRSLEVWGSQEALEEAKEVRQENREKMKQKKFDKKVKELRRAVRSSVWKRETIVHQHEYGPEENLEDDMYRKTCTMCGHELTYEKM
Sequence of His-truncXPA-StrepII (P23025 98-239): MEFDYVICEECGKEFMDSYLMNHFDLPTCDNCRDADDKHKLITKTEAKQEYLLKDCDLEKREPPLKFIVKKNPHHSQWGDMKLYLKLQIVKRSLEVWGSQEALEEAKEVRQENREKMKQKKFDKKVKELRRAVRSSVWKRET

B1: ND37 (dsDNA)
DNA 1: CCGAGTCATTCCTGCAGCGAGTCCATGGGAGTCAAAT
DNA 2: ATTTGACTCCCATGGACTCGCTGCAGGAATGACTCGG
modifications: 5'-phosphate top strand
In the case of B1, the Kd (usually the equilibrium constant for the complex coming apart) was found to be 253 ± 14 nM in series [1] and 269 ± 22 nM in series [2].

B2: AAF37 (dsDNA)
DNA 1: B1 DNA 1
DNA 2: B1 DNA 2
modifications: dG-C8-AAF at G14 of top strand; 5'-phosphate top strand
With B2, the Kd in series [1] stood at 109 ± 5 nM; in series [2], 189 ± 9 nM.

B3: CPD37 (dsDNA)
DNA 1: B1 DNA 1 with G21T
DNA 2: B1 DNA 2 with C17A
modifications: CPD T<>T at T21-T22 of top strand; 5'-phosphate top strand
As for B3, the Kd in series [2] is 269 ± 24 nM. For the same molecule, in series [3], the binding signal is ~44 fold specificity for CPD over non-damaged DNA (Kd ratio x 37 sites).
